Results: the supplement of paper PMC10899765

Assays:
Settings in all cases: 20 nM; 72 h
MCF10A [1] = assay: 5+ nucleoli phenotype percent effect (relative to siNT 0% and siKIF11 100%); higher = more cells with five or more nucleoli
Protocol: (§1)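 After 72 h, cells were fixed and stained with Hoechst and anti-fibrillarin, and nucleoli per nucleus were counted with CellProfiler. Values are plate-adjusted percent effect for the one-nucleolus and 5+ nucleoli phenotypes, normalised to siNT (0%) and to the positive controls siNOL11 or siKIF11 (100%), as the mean of biological triplicates. Percent viability is the nuclei count relative to siNT.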

MCF10A [2] = assay: one-nucleolus phenotype percent effect (relative to siNT 0% and siNOL11 100%); higher = more cells with one nucleolus (ribosome biogenesis inhibition)
Protocol: as §1

MCF10A [3] = assay: percent viability (nuclei count relative to siNT); higher = more viable cells
Protocol: as §1

Sequence: UGCGACAUUGGAAGUAGUAUCA [hsa-miR-3683]
- 5+ nucleoli phenotype percent effect (MCF10A [1]): -3.56%
- one-nucleolus phenotype percent effect (MCF10A [2]): -0.47%
- percent viability (MCF10A [3]): 61.1%

Sequence: UCUCGCAUCAGGAGGCAAGG [hsa-miR-6872-5p]
- 5+ nucleoli phenotype percent effect (MCF10A [1]): 24.9%
- one-nucleolus phenotype percent effect (MCF10A [2]): -13%
- percent viability (MCF10A [3]): 56%

Sequence: UCCCUGUCCUCCAGGAGCUCACG [hsa-miR-339-5p]
- 5+ nucleoli phenotype percent effect (MCF10A [1]): -0.871%
- one-nucleolus phenotype percent effect (MCF10A [2]): 0.467%
- percent viability (MCF10A [3]): 51.6%

Sequence: UUUAGGAUAAGCUUGACUUUUG [hsa-miR-651]
- 5+ nucleoli phenotype percent effect (MCF10A [1]): 33.3%
- one-nucleolus phenotype percent effect (MCF10A [2]): -20.4%
- percent viability (MCF10A [3]): 140%

Sequence: CUGACCUAUGAAUUGACAGCC [hsa-miR-192-5p]
- 5+ nucleoli phenotype percent effect (MCF10A [1]): -30%
- one-nucleolus phenotype percent effect (MCF10A [2]): 57.2%
- percent viability (MCF10A [3]): 28.2%

Sequence: UUAGGGCCCUGGCUCCAUCUCC [hsa-miR-1296]
- 5+ nucleoli phenotype percent effect (MCF10A [1]): 13.2%
- one-nucleolus phenotype percent effect (MCF10A [2]): 8%
- percent viability (MCF10A [3]): 39.5%

Sequence: CUGCAGGCAGAAGUGGGGCUGACA [hsa-miR-6511b-5p]
- 5+ nucleoli phenotype percent effect (MCF10A [1]): -9.29%
- one-nucleolus phenotype percent effect (MCF10A [2]): 39.6%
- percent viability (MCF10A [3]): 27.4%

Sequence: CCCAUGCCUCCUGCCGCGGUC [hsa-miR-6872-3p]
- 5+ nucleoli phenotype percent effect (MCF10A [1]): -8.71%
- one-nucleolus phenotype percent effect (MCF10A [2]): 17.4%
- percent viability (MCF10A [3]): 48%

Sequence: GAUGAGCUCAUUGUAAUAUGAG [hsa-miR-556-5p]
- 5+ nucleoli phenotype percent effect (MCF10A [1]): 8.79%
- one-nucleolus phenotype percent effect (MCF10A [2]): -2.48%
- percent viability (MCF10A [3]): 111%

Sequence: AGGUUGGGAUCGGUUGCAAUGCU [hsa-miR-92a-1-5p]
- 5+ nucleoli phenotype percent effect (MCF10A [1]): -34%
- one-nucleolus phenotype percent effect (MCF10A [2]): 4.93%
- percent viability (MCF10A [3]): 17.4%

Sequence: GAUCCCUUUAUCUGUCCUCUAG [hsa-miR-6866-3p]
- 5+ nucleoli phenotype percent effect (MCF10A [1]): 77.6%
- one-nucleolus phenotype percent effect (MCF10A [2]): -33.5%
- percent viability (MCF10A [3]): 112%

Sequence: AAUGUAGAGAUUGAUCAAAAU [hsa-miR-3668]
- 5+ nucleoli phenotype percent effect (MCF10A [1]): 0.392%
- one-nucleolus phenotype percent effect (MCF10A [2]): 2.57%
- percent viability (MCF10A [3]): 86.3%

Sequence: AGGACCUGCGGGACAAGAUUCUU [hsa-miR-492]
- 5+ nucleoli phenotype percent effect (MCF10A [1]): -18.8%
- one-nucleolus phenotype percent effect (MCF10A [2]): 9.32%
- percent viability (MCF10A [3]): 49%

Sequence: CCUGCAGAGAGGAAGCCCUUC [hsa-miR-3158-5p]
- 5+ nucleoli phenotype percent effect (MCF10A [1]): -45.3%
- one-nucleolus phenotype percent effect (MCF10A [2]): 26.4%
- percent viability (MCF10A [3]): 38.5%

Sequence: UGAGUGCCGGUGCCUGCCCUG [hsa-miR-1909-5p]
- 5+ nucleoli phenotype percent effect (MCF10A [1]): -15.5%
- one-nucleolus phenotype percent effect (MCF10A [2]): 18.8%
- percent viability (MCF10A [3]): 46.8%

Sequence: UUAGCCAAUUGUCCAUCUUUAG [hsa-miR-4662a-5p]
- 5+ nucleoli phenotype percent effect (MCF10A [1]): 1.03%
- one-nucleolus phenotype percent effect (MCF10A [2]): 9.07%
- percent viability (MCF10A [3]): 33.5%

Sequence: GUGAGUGGGAGCCGGUGGGGCUG [hsa-miR-4758-5p]
- 5+ nucleoli phenotype percent effect (MCF10A [1]): 48.5%
- one-nucleolus phenotype percent effect (MCF10A [2]): -17.7%
- percent viability (MCF10A [3]): 107%

Sequence: CGUGGAUUGUCUGGAUGCAU [hsa-miR-8056]
- 5+ nucleoli phenotype percent effect (MCF10A [1]): -25.1%
- one-nucleolus phenotype percent effect (MCF10A [2]): 12.9%
- percent viability (MCF10A [3]): 41.8%

Sequence: UUGGGACAUACUUAUGCUAAA [hsa-miR-1302]
- 5+ nucleoli phenotype percent effect (MCF10A [1]): -1.97%
- one-nucleolus phenotype percent effect (MCF10A [2]): -3.28%
- percent viability (MCF10A [3]): 46.9%

Sequence: UAGGGGGUGGCAGGCUGGCC [hsa-miR-6732-5p]
- 5+ nucleoli phenotype percent effect (MCF10A [1]): -15.7%
- one-nucleolus phenotype percent effect (MCF10A [2]): 17.1%
- percent viability (MCF10A [3]): 33.3%

Sequence: UGUCUACUACUGGAGACACUGG [hsa-miR-934]
- 5+ nucleoli phenotype percent effect (MCF10A [1]): -13.1%
- one-nucleolus phenotype percent effect (MCF10A [2]): 22.5%
- percent viability (MCF10A [3]): 37.1%

Sequence: CACAUUACACGGUCGACCUCU [hsa-miR-323a-3p]
- 5+ nucleoli phenotype percent effect (MCF10A [1]): -33.7%
- one-nucleolus phenotype percent effect (MCF10A [2]): 12.4%
- percent viability (MCF10A [3]): 49.9%

Sequence: CUCCGUUUGCCUGUUUCGCUG [hsa-miR-1468]
- 5+ nucleoli phenotype percent effect (MCF10A [1]): 30.4%
- one-nucleolus phenotype percent effect (MCF10A [2]): -8.9%
- percent viability (MCF10A [3]): 112%

Sequence: CCAGUUUUCCCAGGAUU [hsa-miR-4328]
- 5+ nucleoli phenotype percent effect (MCF10A [1]): 62.6%
- one-nucleolus phenotype percent effect (MCF10A [2]): -38.7%
- percent viability (MCF10A [3]): 108%

Sequence: UUGAUCUCGGAAGCUAAGC [hsa-miR-7641]
- 5+ nucleoli phenotype percent effect (MCF10A [1]): 6.46%
- one-nucleolus phenotype percent effect (MCF10A [2]): -20.1%
- percent viability (MCF10A [3]): 82.6%

Sequence: UAUUGCACAUUACUAAGUUGCA [hsa-miR-32-5p]
- 5+ nucleoli phenotype percent effect (MCF10A [1]): 9.82%
- one-nucleolus phenotype percent effect (MCF10A [2]): -7.37%
- percent viability (MCF10A [3]): 123%

Sequence: ACUCGGCUGCGGUGGACAAGU [hsa-miR-4638-5p]
- 5+ nucleoli phenotype percent effect (MCF10A [1]): -4.89%
- one-nucleolus phenotype percent effect (MCF10A [2]): 3.97%
- percent viability (MCF10A [3]): 39.5%

Sequence: AUCCCUUGCAGGGGCUGUUGGGU [hsa-miR-623]
- 5+ nucleoli phenotype percent effect (MCF10A [1]): 53.3%
- one-nucleolus phenotype percent effect (MCF10A [2]): -13.1%
- percent viability (MCF10A [3]): 91.7%

Sequence: ACCUGGCAGCAGGGAGCGUCGU [hsa-miR-8073]
- 5+ nucleoli phenotype percent effect (MCF10A [1]): -35.6%
- one-nucleolus phenotype percent effect (MCF10A [2]): 28.9%
- percent viability (MCF10A [3]): 33.8%

Sequence: AUGCUACUCGGAAAUCCCACUGA [hsa-miR-5089-3p]
- 5+ nucleoli phenotype percent effect (MCF10A [1]): -30.6%
- one-nucleolus phenotype percent effect (MCF10A [2]): 12.4%
- percent viability (MCF10A [3]): 47.3%

Sequence: CUCCAGAGGGAAGUACUUUCU [hsa-miR-520a-5p]
- 5+ nucleoli phenotype percent effect (MCF10A [1]): -28.3%
- one-nucleolus phenotype percent effect (MCF10A [2]): 23.8%
- percent viability (MCF10A [3]): 34.6%

Sequence: CGGGUGGGAGCAGAUCUUAUUGAG [hsa-miR-6766-5p]
- 5+ nucleoli phenotype percent effect (MCF10A [1]): 56.1%
- one-nucleolus phenotype percent effect (MCF10A [2]): -20.9%
- percent viability (MCF10A [3]): 76.6%

Sequence: AAAGGUGCUCAAAUUAGACAU [hsa-miR-4735-3p]
- 5+ nucleoli phenotype percent effect (MCF10A [1]): -26.8%
- one-nucleolus phenotype percent effect (MCF10A [2]): 43%
- percent viability (MCF10A [3]): 21.4%

Sequence: AGCCUGUGCUUGUCCCUGCAG [hsa-miR-6811-3p]
- 5+ nucleoli phenotype percent effect (MCF10A [1]): -10.2%
- one-nucleolus phenotype percent effect (MCF10A [2]): 24.6%
- percent viability (MCF10A [3]): 11.8%

Sequence: CCAGUAUUAACUGUGCUGCUGA [hsa-miR-16-1-3p]
- 5+ nucleoli phenotype percent effect (MCF10A [1]): -19.3%
- one-nucleolus phenotype percent effect (MCF10A [2]): 7.96%
- percent viability (MCF10A [3]): 85.1%

Sequence: CCUGCAGCGACUUGAUGGCUUCC [hsa-miR-1184]
- 5+ nucleoli phenotype percent effect (MCF10A [1]): -8.51%
- one-nucleolus phenotype percent effect (MCF10A [2]): 4.01%
- percent viability (MCF10A [3]): 70.1%

Sequence: UUCUCUUUCUUUAGCCUUGUGU [hsa-miR-4753-3p]
- 5+ nucleoli phenotype percent effect (MCF10A [1]): -14.1%
- one-nucleolus phenotype percent effect (MCF10A [2]): 27.3%
- percent viability (MCF10A [3]): 22.1%

Sequence: GAGCCAGUUGGACAGGAGC [hsa-miR-575]
- 5+ nucleoli phenotype percent effect (MCF10A [1]): 3.98%
- one-nucleolus phenotype percent effect (MCF10A [2]): -23.7%
- percent viability (MCF10A [3]): 129%

Sequence: UCCUUCAUUCCACCGGAGUCUG [hsa-miR-205-5p]
- 5+ nucleoli phenotype percent effect (MCF10A [1]): -17.6%
- one-nucleolus phenotype percent effect (MCF10A [2]): 21%
- percent viability (MCF10A [3]): 67.4%

Sequence: AGCCUGGAAGCUGGAGCCUGCAGU [hsa-miR-1254]
- 5+ nucleoli phenotype percent effect (MCF10A [1]): -6.84%
- one-nucleolus phenotype percent effect (MCF10A [2]): 10.5%
- percent viability (MCF10A [3]): 50.1%

Sequence: UCAGGCCUCUUUCUACCUU [hsa-miR-4650-5p]
- 5+ nucleoli phenotype percent effect (MCF10A [1]): 12.7%
- one-nucleolus phenotype percent effect (MCF10A [2]): -4.86%
- percent viability (MCF10A [3]): 19.7%

Sequence: UUAACUCCUUUCACACCCAUGG [hsa-miR-4764-3p]
- 5+ nucleoli phenotype percent effect (MCF10A [1]): 15.3%
- one-nucleolus phenotype percent effect (MCF10A [2]): -18%
- percent viability (MCF10A [3]): 91.4%

Sequence: CGGGGCAGCUCAGUACAGGAU [hsa-miR-486-3p]
- 5+ nucleoli phenotype percent effect (MCF10A [1]): -5.42%
- one-nucleolus phenotype percent effect (MCF10A [2]): 47.2%
- percent viability (MCF10A [3]): 10.1%

Sequence: UGUGCUUGCUCGUCCCGCCCGCA [hsa-miR-636]
- 5+ nucleoli phenotype percent effect (MCF10A [1]): -6.7%
- one-nucleolus phenotype percent effect (MCF10A [2]): 5.25%
- percent viability (MCF10A [3]): 111%

Sequence: CAGCACCCUGUGGCUCCCACAG [hsa-miR-6871-3p]
- 5+ nucleoli phenotype percent effect (MCF10A [1]): 26.8%
- one-nucleolus phenotype percent effect (MCF10A [2]): -5.35%
- percent viability (MCF10A [3]): 50.1%

Sequence: CGGGCGUGGUGGUGGGGG [hsa-miR-1268a]
- 5+ nucleoli phenotype percent effect (MCF10A [1]): 44.8%
- one-nucleolus phenotype percent effect (MCF10A [2]): -19.1%
- percent viability (MCF10A [3]): 96.6%

Sequence: AACAAUAUCCUGGUGCUGAGUG [hsa-miR-338-5p]
- 5+ nucleoli phenotype percent effect (MCF10A [1]): -1.58%
- one-nucleolus phenotype percent effect (MCF10A [2]): -0.375%
- percent viability (MCF10A [3]): 47.6%

Sequence: UCUGGUCCUGGACAGGAGGC [hsa-miR-7152-3p]
- 5+ nucleoli phenotype percent effect (MCF10A [1]): 18.5%
- one-nucleolus phenotype percent effect (MCF10A [2]): -12.8%
- percent viability (MCF10A [3]): 41.9%
